Like-named read-outs stand apart in the source and are kept apart here.
What was measured:
[1] = target: T1, human EGFR (human, UniProt P00533 25-1210); test: flow cytometry competition on A431 cells; competitor: 10 nM biotinylated TGFα
[2] = target: T2, huEGFRdIII-Fc (human; murine, UniProt P00533 334-525); test: ELISA on the EGFR ECD-Fc construct (A450)
T2 construct: range 310-501; Residue numbers count on the mature receptor, not on the precursor; also called human EGFR domain III; not shown: murine IgG2A hinge, CH2, and CH3 region

[3] = target: T3, huEGFR-Fc (human; murine, UniProt P00533 25-645); test: ELISA on the EGFR ECD-Fc construct (A450)
T3 construct: extracellular domain; also called human EGFR ECD Fc fusion; wild type human EGFR; not shown: murine IgG2A hinge, CH2, and CH3 region (pmuFc2ANL vector)

[4] = target: T4, chEGFRdIII-Fc (murine; human, UniProt Q01279 334-483; P00533 484-505; Q01279 506-525); test: ELISA on the EGFR ECD-Fc construct (A450)
T4 construct: range 310-459;range 460-481;range 482-501; the split into three pieces follows from that; also called human/murine EGFR chimera; not shown: murine IgG2A hinge, CH2, and CH3 region

[5] = target: T1, human EGFR; test: cell-based or functional assay
[6] = target: T1, human EGFR; test: flow cytometry competition on MDA-MB468 cells; competed: 0.3 nM biotinylated 528 antibody; streptavidin-Alexa 488 detection
Description: (§1) To distinguish binding epitopes of anti-EGFR antibodies, antibody binding competition assays were done using flow cytometry. […] In brief, the biotinylated antibody was pre-mixed with varying concentration of ‘competing’ antibodies. The antibody mixture was then incubated with cells on ice for 2h. […] After washing, the cells were fixed and analyzed in FACScalibur. The geometric mean fluorescence intensity was plotted against antibody concentration in semi-log plot and normalized so that 100% represents the maximal binding of the biotinylated antibody in absence of other antibody and 0% represents the background staining in absence of the biotinylated antibody.

[7] = target: T1, human EGFR; test: cell-based or functional assay; remark: listed apart in the source
[8] = target: T1, human EGFR; test: cell-based or functional assay; remark: listed apart in the source
[9] = target: T1, human EGFR; test: flow cytometry competition on MDA-MB468 cells; competed: 0.2 nM biotinylated cetuximab; streptavidin-Alexa 488 detection
Description: as §1

[10] = target: T1, human EGFR; test: flow cytometry competition on A431 cells; competitor: 1.8 nM biotinylated EGF
Description: To examine if the EGFR antibodies inhibit the ligand binding to the EGFR, the binding of biotinylated EGFR ligand to the A431 cells was measured by flow cytometry in the presence of anti-EGFR antibodies. […] Prior to competition assay, the binding curve of the biotinylated ligands was established. […] Cells were then washed twice with FACS buffer and incubated with streptavidin-APC conjugate (Jackson Immunoresearch) for 15 min on ice. Cells were washed twice with FACS buffer and analyzed in FACS Calibur (BD Bioscience) using FlowJo program (Tree Star). The geometric mean fluorescence intensities were plotted against the antibody concentration in a semi-log plot.

[11] = target: T5, muEGFRdIII-Fc (murine, UniProt Q01279 334-525); test: ELISA on the EGFR ECD-Fc construct (A450)
T5 construct: range 310-501; Residue numbers count on the mature receptor, not on the precursor; also called murine EGFR domain III; not shown: murine IgG2A hinge, CH2, and CH3 region

[12] = target: T2, huEGFRdIII-Fc; test: ELISA on the EGFR ECD-Fc construct (A450); remark: listed apart in the source
[13] = target: T3, huEGFR-Fc; test: ELISA on the EGFR ECD-Fc construct (A450); remark: listed apart in the source
[14] = target: T4, chEGFRdIII-Fc; test: ELISA on the EGFR ECD-Fc construct (A450); remark: listed apart in the source
[15] = target: T5, muEGFRdIII-Fc; test: ELISA on the EGFR ECD-Fc construct (A450); remark: listed apart in the source
[16] = target: T2, huEGFRdIII-Fc; test: ELISA on the EGFR ECD-Fc construct (A450); remark: listed apart in the source
[17] = target: T3, huEGFR-Fc; test: ELISA on the EGFR ECD-Fc construct (A450); remark: listed apart in the source
[18] = target: T4, chEGFRdIII-Fc; test: ELISA on the EGFR ECD-Fc construct (A450); remark: listed apart in the source

Molecule	EC50 [1] [nM]	EC50 [2] [nM]	EC50 [3] [nM]	EC50 [4] [nM]	EC50 (nM), anti-proliferative activity in NCI-H292 cells [5] [nM]	IC50 (read off the curve) [6] [nM]	EC50 (nM), anti-proliferative activity in NCI-H292 cells [7] [nM]	EC50 (nM), anti-proliferative activity in HCC827 cells [8] [nM]	Maximal inhibition (%), HCC827 cells [8] [%]	IC50 (read off the curve) [9] [nM]	EC50 [10] [nM]	binding result [11]	EC50 [12] [nM]	EC50 [13] [nM]	EC50 [14] [nM]	binding result [15]	EC50 [16] [nM]	EC50 [17] [nM]	EC50 [18] [nM]
TGFα (ligand)	1.34	–	–	–	–	–	–	–	–	–	–	–	–	–	–	–	–	–	–
muEGFR-7 antibody (antibody, V domains shown, Murine hybridoma antibody (ATCC PTA-11332)) VH: QVQLQQSGAELARPGASVKLSCKASGYTFTSYWMQWVKQRPGQGLECIGTIYPGDGDTTYTQKFKGKATLTADKSSSTAYMQLSSLASEDSAVYYCARYDAPGYAMDYWGQGTSVTVSS VL: DIQMTQSPSSLSASLGGKVTITCKASQDINNYLAWYQHKPGKGPRLLIHYTSTLHPGIPSRFSGSGSGRDYSFSISNLEPEDIATYYCLQYDNLLYTFGGGTKLEIKR	–	0.043	0.0328	0.294	0.21	~2	0.4	0.03	72	~2	–	–	–	–	–	–	–	–	–

The remaining lines, values ahead:

EC50 [1] [nM]	EC50 [2] [nM]	EC50 [3] [nM]	EC50 [4] [nM]	EC50 (nM), anti-proliferative activity in NCI-H292 cells [5] [nM]	IC50 (read off the curve) [6] [nM]	EC50 (nM), anti-proliferative activity in NCI-H292 cells [7] [nM]	EC50 (nM), anti-proliferative activity in HCC827 cells [8] [nM]	Maximal inhibition (%), HCC827 cells [8] [%]	IC50 (read off the curve) [9] [nM]	EC50 [10] [nM]	binding result [11]	EC50 [12] [nM]	EC50 [13] [nM]	EC50 [14] [nM]	binding result [15]	EC50 [16] [nM]	EC50 [17] [nM]	EC50 [18] [nM]	Molecule
1.34	–	–	–	–	~2	–	0.7	63	~2	2.93	no binding (tested: 10^-7 M)	0.0572	0.0485	1.24	–	–	–	–	muEGFR-12 antibody (antibody, V domains shown, Murine hybridoma antibody (ATCC PTA-11333)) VH: QVQLQQSGTELARPGASVKLSCKASGYTFTSYWMQWVKQRPGQGLECIGTIYPGDGDTRYIQKFKGKATLTADKSSSTAYMQLSSLASEDSAVYYCARYDAPGYAMDYWGQGTSVTVSS VL: DVQITQSPSYLAASPGETITINCRASKSISKYLAWYQEKPGKTNKLLIYSGSTLQSGIPSRFSGSGSGTDFTLTISSLEPEDFAMYYCQQHNEYPWTFGGGTKLEIK
1.18	–	–	–	2.59	~2	5.6	0.3	72	~2	2.55	–	–	–	–	no binding (tested: 10^-7 M)	0.0694	0.0484	0.867	muEGFR-6 antibody (antibody, V domains shown, Murine hybridoma antibody (ATCC PTA-11331)) VH: QVQLQQSGAELARPGASVKLSCKASGYTFTSYWMQWVKQRPGQGLECIGALYPGDGDARYTQKFKGKATLTADRSSSTAYMQLSSLASEDSAVYYCARYDAPGYAMDYWGQGTSVTVAS VL: DIQMTQSPSSLSASLGGKVTITCKASQDINNYIAWYQHKPGKGPRLLIHYTSTLHPGIPSRFSGSGSGRDYSFSISNLEPEDIATYYCLQYDNLLYTFGGGTKLEIKR

— patent US20140099308A1 (IMMUNOGEN, published 2014)
